Earlier results on 1 substance are cited in paper PMC12206923.

As a reminder, the Kd is the equilibrium constant for the complex coming apart.

In the data set the target is dimeric IL-2 receptor (Homo sapiens) (UniProt P14784).
Sequence of UniProt P14784 (P14784 27-240, chain 1 of 2): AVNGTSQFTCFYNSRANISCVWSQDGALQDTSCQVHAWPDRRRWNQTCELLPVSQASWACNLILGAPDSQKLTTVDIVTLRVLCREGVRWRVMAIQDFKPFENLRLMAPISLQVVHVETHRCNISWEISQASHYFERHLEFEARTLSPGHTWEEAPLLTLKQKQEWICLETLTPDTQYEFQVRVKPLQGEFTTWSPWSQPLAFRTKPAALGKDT
Sequence of UniProt P14784 (P31785 23-262, chain 2 of 2, further chain): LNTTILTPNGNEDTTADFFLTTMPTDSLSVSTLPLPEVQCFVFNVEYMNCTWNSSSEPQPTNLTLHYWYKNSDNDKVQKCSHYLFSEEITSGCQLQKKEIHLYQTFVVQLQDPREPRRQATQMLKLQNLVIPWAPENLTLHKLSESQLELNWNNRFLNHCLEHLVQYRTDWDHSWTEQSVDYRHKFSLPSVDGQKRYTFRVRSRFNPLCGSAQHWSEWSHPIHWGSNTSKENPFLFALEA

Sequence of IL-2 (P60568 21-153): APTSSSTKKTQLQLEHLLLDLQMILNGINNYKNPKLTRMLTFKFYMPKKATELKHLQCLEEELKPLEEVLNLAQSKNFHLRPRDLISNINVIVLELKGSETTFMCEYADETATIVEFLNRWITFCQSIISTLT

Regarding IL-2 (from UniProt P60568), the Kd is 1 nM.
